Data reported in patent US20240269303A1 (RESEARCH DEVELOPMENT FOUNDATION, published 2024).

What was measured:
LGR5 [1] = target: T1, LGR5 (UniProt O75473 22-907, limits assumed); test: cell-based or functional assay
T1 sequence (looked up): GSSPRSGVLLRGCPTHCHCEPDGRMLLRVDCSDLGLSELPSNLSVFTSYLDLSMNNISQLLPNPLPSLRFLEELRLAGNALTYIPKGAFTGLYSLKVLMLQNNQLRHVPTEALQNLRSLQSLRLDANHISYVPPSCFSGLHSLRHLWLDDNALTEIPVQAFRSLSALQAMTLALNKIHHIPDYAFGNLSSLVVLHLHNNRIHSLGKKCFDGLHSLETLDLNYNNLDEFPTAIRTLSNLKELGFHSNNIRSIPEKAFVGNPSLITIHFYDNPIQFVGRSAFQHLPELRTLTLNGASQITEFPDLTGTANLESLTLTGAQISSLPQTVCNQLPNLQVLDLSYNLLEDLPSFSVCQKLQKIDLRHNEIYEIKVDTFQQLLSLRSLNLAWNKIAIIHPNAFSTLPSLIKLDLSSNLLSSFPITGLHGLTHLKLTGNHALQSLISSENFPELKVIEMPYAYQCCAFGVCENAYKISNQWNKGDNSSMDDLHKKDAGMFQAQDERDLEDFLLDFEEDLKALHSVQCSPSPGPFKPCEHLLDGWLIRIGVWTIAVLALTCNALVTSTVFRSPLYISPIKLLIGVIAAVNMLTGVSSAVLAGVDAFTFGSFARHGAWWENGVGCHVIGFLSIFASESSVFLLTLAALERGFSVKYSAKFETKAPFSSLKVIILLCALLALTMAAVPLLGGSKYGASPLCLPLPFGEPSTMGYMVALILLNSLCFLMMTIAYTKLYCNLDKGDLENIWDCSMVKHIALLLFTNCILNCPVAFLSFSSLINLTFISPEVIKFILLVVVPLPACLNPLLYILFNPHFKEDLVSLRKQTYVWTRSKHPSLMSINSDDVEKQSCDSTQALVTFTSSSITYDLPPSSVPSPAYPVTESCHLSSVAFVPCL

LGR5 [2] = target: T1, LGR5; test: cell-based or functional assay; remark: listed apart in the source

B1: FcF2-deruxtecan (Fc fusion)
chain: EPKSCDKTHTCPPCPAPELLGGPSVFLFPPKPKDTLMISRTPEVTCVVVDVSHEDPEVKFNWYVDGVEVHNAKTKPREEQYNSTYRVVSVLTVDHHDWLNGKEYKCKVSNKALPAPIEKTISKAKGQPREPQVYTLPPSRDELTKNQVSLTCLVKGFYPSDIAVEWESNGQPENNYKTTPPVLDSDGSFFLYSKLTVDKSRWQQGNVFSCSVMHEALHSHYTQKSLSLSPGKGGGGSGGGGSSRGIKGKRQRRISAEGSQACAKGCELCSEVNGCLKCSPKLFILLERNDIRQVGVCLPSCPPGYFDARNPDMNKCIKCKIEHCEACFSHNFCTKCKEGLYLHKGRCYPACPEGSSAANGTMECSSPGGGGSGGGGSLPETGGGC
modifications: C-terminal Cys of GGGC carries maleimide-GGFG-deruxtecan
In the case of B1, the “IC50 of growth inhibition, OVCAR8/EV cells (LGR5-poor control; CCK8, 120 h)” value (LGR5 [1]) is reported as 9.04 nM, the “IC50 of growth inhibition, OVCAR8/LGR5 cells (CCK8, 120 h)” value (LGR5 [1]) is reported as 0.753 nM and the “selectivity, OVCAR8/LGR5 against OVCAR8/EV” value (LGR5 [1]) is reported as 12 fold.

B2: FcST4-MMAE (Fc fusion)
chain: EPKSCDKTHTCPPCPAPELLGGPSVFLFPPKPKDTLMISRTPEVTCVVVDVSHEDPEVKFNWYVDGVEVHNAKTKPREEQYNSTYRVVSVLTVDHHDWLNGKEYKCKVSNKALPAPIEKTISKAKGQPREPQVYTLPPSRDELTKNQVSLTCLVKGFYPSDIAVEWESNGQPENNYKTTPPVLDSDGSFFLYSKLTVDKSRWQQGNVFSCSVMHEALHSHYTQKSLSLSPGKGGGGSGGGGSSRGIKGKRQRRISAEGSQACAKGCELCSEVNGCLKCSPKLFILLERNDIRQVGVCLPSCPPGYFDARNPDMNKCIKCKIEHCEACFSHNFCTKCKEGLYLHKGRCYPACPEGSSAANGTMECSSPGGGGSGGGGSSRGIKGKRQRRISAEGSQACAKGCELCSEVNGCLKCSPKLFILLERNDIRQVGVCLPSCPPGYFDARNPDMNKCIKCKIEHCEACFSHNFCTKCKEGLYLHKGRCYPACPEGSSAANGTMECSSPGGGGSGGGGSLPETGGG
modifications: C-terminal GGG carries val-cit-PAB-MMAE (sortase reaction with G3-val-cit-PAB-MMAE; GG-8xHis removed)
For B2, the “IC50 of cytotoxicity (OVCAR8 empty vector and LGR5-overexpressing cells; the cell line of each end is not stated)” value (LGR5 [1]) was 1.9 to 3.8 nM.

B3: FcF2Δlinker-MMAE (Fc fusion)
chain: EPKSCDKTHTCPPCPAPELLGGPSVFLFPPKPKDTLMISRTPEVTCVVVDVSHEDPEVKFNWYVDGVEVHNAKTKPREEQYNSTYRVVSVLTVDHHDWLNGKEYKCKVSNKALPAPIEKTISKAKGQPREPQVYTLPPSRDELTKNQVSLTCLVKGFYPSDIAVEWESNGQPENNYKTTPPVLDSDGSFFLYSKLTVDKSRWQQGNVFSCSVMHEALHSHYTQKSLSLSPGKSRGIKGKRQRRISAEGSQACAKGCELCSEVNGCLKCSPKLFILLERNDIRQVGVCLPSCPPGYFDARNPDMNKCIKCKIEHCEACFSHNFCTKCKEGLYLHKGRCYPACPEGSSAANGTMECSSPLPETGGG
modifications: C-terminal GGG carries valine-citrulline-PAB-MMAE
In the case of B3, the “IC50 (read off the curve), growth inhibition of OVCAR8/LGR5 cells [panel ExpiCHO FcF2-MMAE linker deletion batch #1]” value (LGR5 [2]) is reported as about 4 nM.

B4: FcF2-PNU159682 (Fc fusion)
chain: EPKSCDKTHTCPPCPAPELLGGPSVFLFPPKPKDTLMISRTPEVTCVVVDVSHEDPEVKFNWYVDGVEVHNAKTKPREEQYNSTYRVVSVLTVDHHDWLNGKEYKCKVSNKALPAPIEKTISKAKGQPREPQVYTLPPSRDELTKNQVSLTCLVKGFYPSDIAVEWESNGQPENNYKTTPPVLDSDGSFFLYSKLTVDKSRWQQGNVFSCSVMHEALHSHYTQKSLSLSPGKGGGGSGGGGSSRGIKGKRQRRISAEGSQACAKGCELCSEVNGCLKCSPKLFILLERNDIRQVGVCLPSCPPGYFDARNPDMNKCIKCKIEHCEACFSHNFCTKCKEGLYLHKGRCYPACPEGSSAANGTMECSSPGGGGSGGGGSLPET
modifications: PNU159682 (anthracycline derivative) joined to the C-terminus by sortase A; the linker is not described
B4 was tested, and the “IC50 of growth inhibition, OVCAR8/EV cells (LGR5-poor control)” value (LGR5 [1]) was over 3 nM, the “IC50 of growth inhibition, OVCAR8/LGR5 cells” value (LGR5 [1]) was 0.3 nM and the “IC50 ratio, OVCAR8/EV to OVCAR8/LGR5” value (LGR5 [1]) was about 10 ratio.
